# Target: MBP-XerD (V. cholerae) (UniProt Q9KPE9)
# Experiment: pull-down
substance,measurement,value
purified XafT peptide (natural protein),fold XafT recovered against amylose beads alone,3 fold
